In the supplement of paper PMC7125110:
± gives the standard error. For some assays here: This sample holds only a part of the variants without activity.

B1: glmS ribozyme (parent)
chain: AUAAAAGCGCCAGAACUACAGAAAUGUAGUUGACGAGGAGGAGGUUUAUCGAAUUUUCGGCGGAUGCCUCCAAA

Experiments:
Settings in all cases: with glucosamine-6-phosphate
[1] = variants of: B1; experiment: kcat; higher = faster cleavage; RNA array
Method in brief: (§1)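 Barcoded glmS ribozyme variants on sequenced MiSeq chips were transcribed in situ by E. coli RNA polymerase and tracked through a hybridised Cy3 probe at 37 °C. Glucosamine-6-phosphate (40 μM to 10 mM) in HEPES/KCl/Mg(OAc)2 buffer was flowed in, and tiles were imaged over ~14 h. Signals were normalised to baseline and to non-cleaving reference variants; per-tile medians were fit to one- or two-exponential decays to give kobs. kcat and KM came from weighted Michaelis–Menten fits across concentrations.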

[2] = variants of: B1; experiment: KM; higher = weaker cofactor use; RNA array
Method in brief: as §1

[3] = variants of: B1; experiment: self-cleavage kobs at 40 uM GlcN6P; higher = faster cleavage; RNA array
Method in brief: as §1

[4] = variants of: B1; experiment: self-cleavage kobs at 160 uM GlcN6P; higher = faster cleavage; RNA array
Method in brief: as §1

[5] = variants of: B1; experiment: self-cleavage kobs at 640 uM GlcN6P; higher = faster cleavage; RNA array
Method in brief: as §1

[6] = variants of: B1; experiment: self-cleavage kobs at 2500 uM GlcN6P; higher = faster cleavage; RNA array
Method in brief: as §1

[7] = variants of: B1; experiment: self-cleavage kobs at 10000 uM GlcN6P; higher = faster cleavage; RNA array
Method in brief: as §1

| Variant | kcat [1] [s⁻¹] | KM [2] [µM] | self-cleavage kobs at 40 uM GlcN6P [3] [s⁻¹] | self-cleavage kobs at 160 uM GlcN6P [4] [s⁻¹] | self-cleavage kobs at 640 uM GlcN6P [5] [s⁻¹] | self-cleavage kobs at 2500 uM GlcN6P [6] [s⁻¹] | self-cleavage kobs at 10000 uM GlcN6P [7] [s⁻¹] |
| --- | --- | --- | --- | --- | --- | --- | --- |
| AUAAAAGCGCCAGAACUACAGAAAUGUAGUUGACGAGGAGGAGGAGUAUCGAAUUUUCGGCGGAUGCCUCCAAA | 0.0594 ± 0.012 | 939 ± 230 | 0.00256 ± 0.00026 | 0.00762 ± 0.0012 | 0.0264 ± 0.006 | 0.0366 ± 0.012 | 0.0669 ± 0.021 |
| AUAAAAGCGCCAGAACUACAGAAAUGUAGUUGACGAGGAGGAGGCUUAUCGAAUGUUCGGCGGAUGCCUCCAAA | 0.0035 ± 0.0008 | 2770 ± 960 | 6.05e-05 ± 8.1e-06 | – | 0.000502 ± 9.9e-05 | 0.00165 ± 0.00048 | 0.00283 ± 0.00033 |
| AUAAAAGCGCCAGAACUACAGAAAUGUAGUUGACGAGGAGGAGGCUUAUCGAAUUUUCGGCGGAGGCCUCCAAA | 0.000191 ± 3.7e-05 | 1810 ± 840 | – | – | 4.57e-05 ± 9.8e-06 | 0.000188 ± 4e-05 | 0.000154 ± 2e-05 |
| AUAAAAGCGCCAGAACUACAGAAAUGUAGUUGACGAGGAGGAGGAUGAUCGAAUUUUCGGCGGAUGCCUCCAAA | 0.0105 ± 0.0027 | 1910 ± 690 | 0.000279 ± 6e-05 | 0.000689 ± 0.00013 | 0.00261 ± 0.00054 | 0.00915 ± 0.0018 | 0.00802 ± 0.0015 |
| AUAAAAGCGCCAGAACUACAGAAAUGUAGUUGACGAGGAGGAGGCUUAUCGAAUUUUCGGCGGAUGACUCCAAA | 0.00652 ± 0.00083 | 2490 ± 470 | 0.000122 ± 4.8e-05 | 0.000424 ± 0.00012 | 0.00119 ± 0.00026 | 0.00392 ± 0.0013 | 0.00519 ± 0.001 |
| AUAAAAGCGCCAGAACUACAGAAAUGUAGUUGACGAGGAGGAGGCUUAUCGAAUUCUCGGCGGAUGCCUCCAAA | 0.000492 ± 4.3e-05 | 5500 ± 810 | – | – | 5.37e-05 ± 1.2e-05 | 0.000149 ± 3e-05 | 0.000319 ± 4.5e-05 |
| AUAAAAGCGCCAGAACUACAGAAAUGUAGUUGACGAGGAGGAGGCGUAUCGAAUUUUCGGCGGAUGCCUCCAAA | 0.00122 ± 0.00043 | 2110 ± 1100 | – | 7.78e-05 ± 1.5e-05 | 0.000322 ± 8.8e-05 | 0.000911 ± 0.00015 | 0.000685 ± 0.00025 |
| AUAAAAGCGCCAGAACUACAGAAAUGUAGUUGACGAGGAGGAGGCUUAUCGAAUUUUCGGCGGAUGCCUCUAAA | 0.00401 ± 0.00038 | 2470 ± 340 | 6.69e-05 ± 7.5e-06 | 0.000236 ± 5.8e-05 | 0.000828 ± 0.00012 | 0.00167 ± 0.00031 | 0.00338 ± 0.00033 |
| AUAAAAGCGCCAGAACUACAGAAAUGUAGUUGACGAGGAGGAGGCUUAUCGAAUUUUCGGCGGAUGCCUCAAAA | 0.00125 ± 0.00022 | 4720 ± 1500 | – | – | 0.00014 ± 3.9e-05 | 0.000744 ± 0.00031 | 0.000832 ± 0.00015 |
| AUAAAAGCGCCAGAACUACAGAAAUGUAGUUGACGAGGAGGAGGAUUAGCGAAUUUUCGGCGGAUGCCUCCAAA | 0.00163 ± 0.00032 | 1560 ± 570 | 5.25e-05 ± 1e-05 | 0.000194 ± 4.9e-05 | 0.000385 ± 5.1e-05 | 0.0012 ± 0.00012 | 0.00132 ± 0.00015 |
| AUAAAAGCGCCAGAACUACAGAAAUGUAGUUGACGAGGAGGAGGCUUAUCGAAUUUACGGCGGAUGCCUCCAAA | 1.9e-05 ± 2.7e-06 | – | – | – | – | – | – |
| AUAAAAGCGCCAGAACUACAGAAAUGUAGUUGACGAGGAGGAGGCUUAUCGAAUUUCCGGCGGAUGCCUCCAAA | 1.67e-05 ± 1e-06 | 6920 ± 1000 | – | – | – | – | – |
| AUAAAAGCGCCAGAACUACAGAAAUGUAGUUGACGAGGAGGAGGCUUAUCGAAUUUUCGGCGGAUGCGUCCAAA | 9.46e-05 ± 8.6e-06 | 714 ± 250 | – | – | 4.14e-05 ± 1.1e-05 | 8.62e-05 ± 1.5e-05 | 8.34e-05 ± 1.2e-05 |
| AUAAAAGCGCCAGAACUACAGAAAUGUAGUUGACGAGGAGGAGGCUUAUCGAAUUUUCGGCGGAUGCUUCCAAA | 0.00315 ± 0.00089 | 4960 ± 2100 | 3.71e-05 ± 1e-05 | 8.24e-05 ± 1.9e-05 | 0.000525 ± 0.00011 | 0.000877 ± 0.00019 | 0.00218 ± 0.00028 |
